Results on 20 molecules are retold here after patent publication US20180155451A1 (published 2018).

The chains are these.
T1: FcγRIIa R (human FcγRIIa, allotype R, Arg at position 131), extracellular domain with C-terminal His tag (human, UniProt P12318 34-217)
T1 construct: extracellular domain; expressed in FreeStyle293 cells; analyte in Biacore; also called 2aR; FcgRIIa R
T1 sequence (looked up): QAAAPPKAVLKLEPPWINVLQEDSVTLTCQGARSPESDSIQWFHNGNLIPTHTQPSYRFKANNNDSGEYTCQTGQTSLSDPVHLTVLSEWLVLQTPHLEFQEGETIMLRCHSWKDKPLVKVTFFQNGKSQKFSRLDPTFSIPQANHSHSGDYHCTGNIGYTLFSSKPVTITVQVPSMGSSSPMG

B1: GpH7-B3 variant Q295_10E/GpL16-k0 (antibody, human IgG1, kappa)
heavy: not shown
light: DIVMTQSPLSLPVTPGEPASISCQASESLVHSNRNTYLHWYLQKPGQSPQLLIYKVSNRFSGVPDRFSGSGSGTDFTLKISRVEAEDVGVYYCSQNTHVPPTFGQGTKVEIERTVAAPSVFIFPPSDEQLKSGTASVVCLLNNFYPREAKVQWKVDNALQSGNSQESVTEQDSKDSTYSLSSTLTLSKADYEKHKVYACEVTHQGLSSPVTKSFNRGEC
notes: homodimerized antibody, mutation in both H chains; also called Ho Ab
B2: GpH7-B3 variant S239_07I/GpL16-k0 (antibody, human IgG1, kappa)
heavy: not shown
light: DIVMTQSPLSLPVTPGEPASISCQASESLVHSNRNTYLHWYLQKPGQSPQLLIYKVSNRFSGVPDRFSGSGSGTDFTLKISRVEAEDVGVYYCSQNTHVPPTFGQGTKVEIERTVAAPSVFIFPPSDEQLKSGTASVVCLLNNFYPREAKVQWKVDNALQSGNSQESVTEQDSKDSTYSLSSTLTLSKADYEKHKVYACEVTHQGLSSPVTKSFNRGEC
notes: as for B1
B3: GpH7-B3 variant S337_10E/GpL16-k0 (antibody, human IgG1, kappa)
heavy: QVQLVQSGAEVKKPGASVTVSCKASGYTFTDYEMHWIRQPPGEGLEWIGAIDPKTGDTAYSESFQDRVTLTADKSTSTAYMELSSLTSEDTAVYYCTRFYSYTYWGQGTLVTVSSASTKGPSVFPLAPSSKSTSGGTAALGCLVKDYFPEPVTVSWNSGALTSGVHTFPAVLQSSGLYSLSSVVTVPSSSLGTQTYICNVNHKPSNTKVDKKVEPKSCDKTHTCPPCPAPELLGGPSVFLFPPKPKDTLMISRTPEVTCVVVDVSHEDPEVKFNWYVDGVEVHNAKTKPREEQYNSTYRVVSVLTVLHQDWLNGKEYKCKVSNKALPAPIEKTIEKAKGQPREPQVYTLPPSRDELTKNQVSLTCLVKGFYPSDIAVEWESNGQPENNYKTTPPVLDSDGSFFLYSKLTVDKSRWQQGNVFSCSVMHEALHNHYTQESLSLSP
light: DIVMTQSPLSLPVTPGEPASISCQASESLVHSNRNTYLHWYLQKPGQSPQLLIYKVSNRFSGVPDRFSGSGSGTDFTLKISRVEAEDVGVYYCSQNTHVPPTFGQGTKVEIERTVAAPSVFIFPPSDEQLKSGTASVVCLLNNFYPREAKVQWKVDNALQSGNSQESVTEQDSKDSTYSLSSTLTLSKADYEKHKVYACEVTHQGLSSPVTKSFNRGEC
notes: as for B1
B4: GpH7-B3 variant S298_08L/GpL16-k0 (antibody, human IgG1, kappa)
heavy: not shown
light: DIVMTQSPLSLPVTPGEPASISCQASESLVHSNRNTYLHWYLQKPGQSPQLLIYKVSNRFSGVPDRFSGSGSGTDFTLKISRVEAEDVGVYYCSQNTHVPPTFGQGTKVEIERTVAAPSVFIFPPSDEQLKSGTASVVCLLNNFYPREAKVQWKVDNALQSGNSQESVTEQDSKDSTYSLSSTLTLSKADYEKHKVYACEVTHQGLSSPVTKSFNRGEC
notes: as for B1
B5: GpH7-B3 variant S337_07I/GpL16-k0 (antibody, human IgG1, kappa)
heavy: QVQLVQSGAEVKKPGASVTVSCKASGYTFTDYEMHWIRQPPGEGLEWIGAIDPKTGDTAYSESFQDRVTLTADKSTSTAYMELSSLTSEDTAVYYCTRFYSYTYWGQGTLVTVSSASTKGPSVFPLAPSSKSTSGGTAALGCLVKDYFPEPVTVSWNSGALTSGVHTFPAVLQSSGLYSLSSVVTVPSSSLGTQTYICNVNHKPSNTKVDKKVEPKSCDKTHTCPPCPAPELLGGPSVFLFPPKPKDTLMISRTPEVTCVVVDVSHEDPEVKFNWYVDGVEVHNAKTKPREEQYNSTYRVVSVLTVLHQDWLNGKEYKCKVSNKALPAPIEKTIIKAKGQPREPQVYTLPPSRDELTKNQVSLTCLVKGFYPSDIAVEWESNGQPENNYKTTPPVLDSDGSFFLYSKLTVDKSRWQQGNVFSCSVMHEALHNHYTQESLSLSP
light: DIVMTQSPLSLPVTPGEPASISCQASESLVHSNRNTYLHWYLQKPGQSPQLLIYKVSNRFSGVPDRFSGSGSGTDFTLKISRVEAEDVGVYYCSQNTHVPPTFGQGTKVEIERTVAAPSVFIFPPSDEQLKSGTASVVCLLNNFYPREAKVQWKVDNALQSGNSQESVTEQDSKDSTYSLSSTLTLSKADYEKHKVYACEVTHQGLSSPVTKSFNRGEC
notes: as for B1
B6: GpH7-B3 variant S239_06M/GpL16-k0 (antibody, human IgG1, kappa)
heavy: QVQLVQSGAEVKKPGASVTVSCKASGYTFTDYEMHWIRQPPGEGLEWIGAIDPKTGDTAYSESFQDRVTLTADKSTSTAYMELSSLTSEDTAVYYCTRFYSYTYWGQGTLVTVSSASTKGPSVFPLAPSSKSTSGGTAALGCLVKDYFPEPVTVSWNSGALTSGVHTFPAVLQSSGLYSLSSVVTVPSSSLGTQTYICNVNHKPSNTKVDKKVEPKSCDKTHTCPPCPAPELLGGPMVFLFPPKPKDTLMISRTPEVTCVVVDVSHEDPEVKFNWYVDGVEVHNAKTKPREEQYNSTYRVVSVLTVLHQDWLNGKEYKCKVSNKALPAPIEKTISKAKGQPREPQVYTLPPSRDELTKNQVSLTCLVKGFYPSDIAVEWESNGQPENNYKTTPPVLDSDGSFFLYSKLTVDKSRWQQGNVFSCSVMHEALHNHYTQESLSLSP
light: DIVMTQSPLSLPVTPGEPASISCQASESLVHSNRNTYLHWYLQKPGQSPQLLIYKVSNRFSGVPDRFSGSGSGTDFTLKISRVEAEDVGVYYCSQNTHVPPTFGQGTKVEIERTVAAPSVFIFPPSDEQLKSGTASVVCLLNNFYPREAKVQWKVDNALQSGNSQESVTEQDSKDSTYSLSSTLTLSKADYEKHKVYACEVTHQGLSSPVTKSFNRGEC
notes: as for B1
B7: GpH7-B3 variant S267_06M/GpL16-k0 (antibody, human IgG1, kappa)
heavy: not shown
light: DIVMTQSPLSLPVTPGEPASISCQASESLVHSNRNTYLHWYLQKPGQSPQLLIYKVSNRFSGVPDRFSGSGSGTDFTLKISRVEAEDVGVYYCSQNTHVPPTFGQGTKVEIERTVAAPSVFIFPPSDEQLKSGTASVVCLLNNFYPREAKVQWKVDNALQSGNSQESVTEQDSKDSTYSLSSTLTLSKADYEKHKVYACEVTHQGLSSPVTKSFNRGEC
notes: as for B1
B8: GpH7-B3 variant S337_12R/GpL16-k0 (antibody, human IgG1, kappa)
heavy: not shown
light: DIVMTQSPLSLPVTPGEPASISCQASESLVHSNRNTYLHWYLQKPGQSPQLLIYKVSNRFSGVPDRFSGSGSGTDFTLKISRVEAEDVGVYYCSQNTHVPPTFGQGTKVEIERTVAAPSVFIFPPSDEQLKSGTASVVCLLNNFYPREAKVQWKVDNALQSGNSQESVTEQDSKDSTYSLSSTLTLSKADYEKHKVYACEVTHQGLSSPVTKSFNRGEC
notes: as for B1
B9: GpH7-B3 variant S337_09D/GpL16-k0 (antibody, human IgG1, kappa)
heavy: not shown
light: DIVMTQSPLSLPVTPGEPASISCQASESLVHSNRNTYLHWYLQKPGQSPQLLIYKVSNRFSGVPDRFSGSGSGTDFTLKISRVEAEDVGVYYCSQNTHVPPTFGQGTKVEIERTVAAPSVFIFPPSDEQLKSGTASVVCLLNNFYPREAKVQWKVDNALQSGNSQESVTEQDSKDSTYSLSSTLTLSKADYEKHKVYACEVTHQGLSSPVTKSFNRGEC
notes: as for B1
B10: GpH7-B3 variant S337_04F/GpL16-k0 (antibody, human IgG1, kappa)
heavy: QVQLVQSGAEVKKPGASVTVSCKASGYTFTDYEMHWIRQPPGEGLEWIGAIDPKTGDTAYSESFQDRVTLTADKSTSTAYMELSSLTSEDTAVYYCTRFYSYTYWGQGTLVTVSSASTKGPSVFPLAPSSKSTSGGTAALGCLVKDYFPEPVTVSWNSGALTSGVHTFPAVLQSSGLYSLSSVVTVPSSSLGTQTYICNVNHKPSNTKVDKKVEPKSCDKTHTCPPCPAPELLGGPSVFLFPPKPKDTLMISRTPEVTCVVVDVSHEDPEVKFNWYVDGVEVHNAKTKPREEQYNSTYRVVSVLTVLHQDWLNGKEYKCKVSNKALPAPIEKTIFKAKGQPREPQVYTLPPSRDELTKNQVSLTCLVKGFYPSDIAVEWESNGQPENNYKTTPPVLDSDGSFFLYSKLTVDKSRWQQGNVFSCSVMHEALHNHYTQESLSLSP
light: DIVMTQSPLSLPVTPGEPASISCQASESLVHSNRNTYLHWYLQKPGQSPQLLIYKVSNRFSGVPDRFSGSGSGTDFTLKISRVEAEDVGVYYCSQNTHVPPTFGQGTKVEIERTVAAPSVFIFPPSDEQLKSGTASVVCLLNNFYPREAKVQWKVDNALQSGNSQESVTEQDSKDSTYSLSSTLTLSKADYEKHKVYACEVTHQGLSSPVTKSFNRGEC
notes: as for B1
B11: GpH7-B3 variant S324_06M/GpL16-k0 (antibody, human IgG1, kappa)
heavy: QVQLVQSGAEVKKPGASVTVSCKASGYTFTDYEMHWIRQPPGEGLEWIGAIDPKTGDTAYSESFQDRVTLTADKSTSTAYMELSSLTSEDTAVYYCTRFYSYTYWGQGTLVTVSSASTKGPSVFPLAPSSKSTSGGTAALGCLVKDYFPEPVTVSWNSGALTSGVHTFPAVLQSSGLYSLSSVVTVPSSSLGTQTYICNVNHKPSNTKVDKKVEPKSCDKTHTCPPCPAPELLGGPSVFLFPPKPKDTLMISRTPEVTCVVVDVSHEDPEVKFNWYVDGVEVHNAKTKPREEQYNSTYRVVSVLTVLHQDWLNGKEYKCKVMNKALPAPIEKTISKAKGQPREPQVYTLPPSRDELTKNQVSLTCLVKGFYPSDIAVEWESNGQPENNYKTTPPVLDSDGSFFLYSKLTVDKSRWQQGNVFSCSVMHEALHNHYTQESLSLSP
light: DIVMTQSPLSLPVTPGEPASISCQASESLVHSNRNTYLHWYLQKPGQSPQLLIYKVSNRFSGVPDRFSGSGSGTDFTLKISRVEAEDVGVYYCSQNTHVPPTFGQGTKVEIERTVAAPSVFIFPPSDEQLKSGTASVVCLLNNFYPREAKVQWKVDNALQSGNSQESVTEQDSKDSTYSLSSTLTLSKADYEKHKVYACEVTHQGLSSPVTKSFNRGEC
notes: as for B1
B12: GpH7-B3 variant S239_14T/GpL16-k0 (antibody, human IgG1, kappa)
heavy: not shown
light: DIVMTQSPLSLPVTPGEPASISCQASESLVHSNRNTYLHWYLQKPGQSPQLLIYKVSNRFSGVPDRFSGSGSGTDFTLKISRVEAEDVGVYYCSQNTHVPPTFGQGTKVEIERTVAAPSVFIFPPSDEQLKSGTASVVCLLNNFYPREAKVQWKVDNALQSGNSQESVTEQDSKDSTYSLSSTLTLSKADYEKHKVYACEVTHQGLSSPVTKSFNRGEC
notes: as for B1
B13: GpH7-B3 variant S337_03V/GpL16-k0 (antibody, human IgG1, kappa)
heavy: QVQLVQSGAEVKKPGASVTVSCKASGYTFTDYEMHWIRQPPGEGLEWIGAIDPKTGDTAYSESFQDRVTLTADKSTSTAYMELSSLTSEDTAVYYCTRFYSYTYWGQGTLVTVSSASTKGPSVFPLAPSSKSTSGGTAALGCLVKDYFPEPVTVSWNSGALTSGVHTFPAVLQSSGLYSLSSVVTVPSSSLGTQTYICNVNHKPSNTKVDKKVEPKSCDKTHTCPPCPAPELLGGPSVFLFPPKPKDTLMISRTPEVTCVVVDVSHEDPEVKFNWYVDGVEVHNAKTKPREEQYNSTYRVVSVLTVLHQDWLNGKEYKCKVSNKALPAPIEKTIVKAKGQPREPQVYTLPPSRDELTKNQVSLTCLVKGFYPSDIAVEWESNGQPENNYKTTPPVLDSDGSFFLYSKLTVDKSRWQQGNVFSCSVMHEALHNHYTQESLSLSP
light: DIVMTQSPLSLPVTPGEPASISCQASESLVHSNRNTYLHWYLQKPGQSPQLLIYKVSNRFSGVPDRFSGSGSGTDFTLKISRVEAEDVGVYYCSQNTHVPPTFGQGTKVEIERTVAAPSVFIFPPSDEQLKSGTASVVCLLNNFYPREAKVQWKVDNALQSGNSQESVTEQDSKDSTYSLSSTLTLSKADYEKHKVYACEVTHQGLSSPVTKSFNRGEC
notes: as for B1
B14: GpH7-B3 variant S267_19Q/GpL16-k0 (antibody, human IgG1, kappa)
heavy: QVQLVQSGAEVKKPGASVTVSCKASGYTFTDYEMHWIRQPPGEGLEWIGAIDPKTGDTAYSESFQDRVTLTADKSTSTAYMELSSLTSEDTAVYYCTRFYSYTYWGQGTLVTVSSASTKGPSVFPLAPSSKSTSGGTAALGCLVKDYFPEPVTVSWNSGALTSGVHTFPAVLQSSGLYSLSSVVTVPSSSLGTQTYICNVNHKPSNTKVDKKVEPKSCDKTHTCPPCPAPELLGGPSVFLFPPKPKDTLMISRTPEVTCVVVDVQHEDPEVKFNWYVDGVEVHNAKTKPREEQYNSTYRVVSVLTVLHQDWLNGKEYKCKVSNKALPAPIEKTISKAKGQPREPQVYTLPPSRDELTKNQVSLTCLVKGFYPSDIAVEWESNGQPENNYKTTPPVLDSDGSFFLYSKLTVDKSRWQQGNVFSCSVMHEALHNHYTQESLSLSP
light: DIVMTQSPLSLPVTPGEPASISCQASESLVHSNRNTYLHWYLQKPGQSPQLLIYKVSNRFSGVPDRFSGSGSGTDFTLKISRVEAEDVGVYYCSQNTHVPPTFGQGTKVEIERTVAAPSVFIFPPSDEQLKSGTASVVCLLNNFYPREAKVQWKVDNALQSGNSQESVTEQDSKDSTYSLSSTLTLSKADYEKHKVYACEVTHQGLSSPVTKSFNRGEC
notes: as for B1
B15: GpH7-B3 variant S337_11K/GpL16-k0 (antibody, human IgG1, kappa)
heavy: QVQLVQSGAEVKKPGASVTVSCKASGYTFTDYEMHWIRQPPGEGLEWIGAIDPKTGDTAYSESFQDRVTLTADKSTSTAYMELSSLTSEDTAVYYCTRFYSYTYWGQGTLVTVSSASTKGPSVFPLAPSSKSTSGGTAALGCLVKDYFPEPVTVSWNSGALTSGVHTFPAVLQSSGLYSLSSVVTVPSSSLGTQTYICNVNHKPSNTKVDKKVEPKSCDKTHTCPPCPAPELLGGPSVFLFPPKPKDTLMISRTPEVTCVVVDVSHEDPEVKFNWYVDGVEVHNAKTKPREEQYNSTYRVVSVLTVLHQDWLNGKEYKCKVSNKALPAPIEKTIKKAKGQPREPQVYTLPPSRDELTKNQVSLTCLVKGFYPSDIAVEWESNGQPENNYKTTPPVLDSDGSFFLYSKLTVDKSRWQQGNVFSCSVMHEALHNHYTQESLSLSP
light: DIVMTQSPLSLPVTPGEPASISCQASESLVHSNRNTYLHWYLQKPGQSPQLLIYKVSNRFSGVPDRFSGSGSGTDFTLKISRVEAEDVGVYYCSQNTHVPPTFGQGTKVEIERTVAAPSVFIFPPSDEQLKSGTASVVCLLNNFYPREAKVQWKVDNALQSGNSQESVTEQDSKDSTYSLSSTLTLSKADYEKHKVYACEVTHQGLSSPVTKSFNRGEC
notes: as for B1
B16: GpH7-B3 variant S337_08L/GpL16-k0 (antibody, human IgG1, kappa)
heavy: not shown
light: DIVMTQSPLSLPVTPGEPASISCQASESLVHSNRNTYLHWYLQKPGQSPQLLIYKVSNRFSGVPDRFSGSGSGTDFTLKISRVEAEDVGVYYCSQNTHVPPTFGQGTKVEIERTVAAPSVFIFPPSDEQLKSGTASVVCLLNNFYPREAKVQWKVDNALQSGNSQESVTEQDSKDSTYSLSSTLTLSKADYEKHKVYACEVTHQGLSSPVTKSFNRGEC
notes: as for B1
B17: GpH7-B3 variant S324_04F/GpL16-k0 (antibody, human IgG1, kappa)
heavy: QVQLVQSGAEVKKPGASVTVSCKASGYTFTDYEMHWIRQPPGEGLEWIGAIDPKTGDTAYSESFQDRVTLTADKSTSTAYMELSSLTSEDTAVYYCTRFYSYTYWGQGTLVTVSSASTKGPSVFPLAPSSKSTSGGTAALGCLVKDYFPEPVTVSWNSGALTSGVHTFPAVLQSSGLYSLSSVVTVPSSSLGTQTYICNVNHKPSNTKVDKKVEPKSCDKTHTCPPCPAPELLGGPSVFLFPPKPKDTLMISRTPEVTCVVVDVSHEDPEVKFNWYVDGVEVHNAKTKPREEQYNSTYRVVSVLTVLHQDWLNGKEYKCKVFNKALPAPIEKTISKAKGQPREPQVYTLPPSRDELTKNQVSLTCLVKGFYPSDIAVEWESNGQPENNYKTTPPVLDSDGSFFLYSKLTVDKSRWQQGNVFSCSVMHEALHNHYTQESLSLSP
light: DIVMTQSPLSLPVTPGEPASISCQASESLVHSNRNTYLHWYLQKPGQSPQLLIYKVSNRFSGVPDRFSGSGSGTDFTLKISRVEAEDVGVYYCSQNTHVPPTFGQGTKVEIERTVAAPSVFIFPPSDEQLKSGTASVVCLLNNFYPREAKVQWKVDNALQSGNSQESVTEQDSKDSTYSLSSTLTLSKADYEKHKVYACEVTHQGLSSPVTKSFNRGEC
notes: as for B1
B18: GpH7-B3 variant S337_06M/GpL16-k0 (antibody, human IgG1, kappa)
heavy: not shown
light: DIVMTQSPLSLPVTPGEPASISCQASESLVHSNRNTYLHWYLQKPGQSPQLLIYKVSNRFSGVPDRFSGSGSGTDFTLKISRVEAEDVGVYYCSQNTHVPPTFGQGTKVEIERTVAAPSVFIFPPSDEQLKSGTASVVCLLNNFYPREAKVQWKVDNALQSGNSQESVTEQDSKDSTYSLSSTLTLSKADYEKHKVYACEVTHQGLSSPVTKSFNRGEC
notes: as for B1
B19: GpH7-B3 variant S298_06M/GpL16-k0 (antibody, human IgG1, kappa)
heavy: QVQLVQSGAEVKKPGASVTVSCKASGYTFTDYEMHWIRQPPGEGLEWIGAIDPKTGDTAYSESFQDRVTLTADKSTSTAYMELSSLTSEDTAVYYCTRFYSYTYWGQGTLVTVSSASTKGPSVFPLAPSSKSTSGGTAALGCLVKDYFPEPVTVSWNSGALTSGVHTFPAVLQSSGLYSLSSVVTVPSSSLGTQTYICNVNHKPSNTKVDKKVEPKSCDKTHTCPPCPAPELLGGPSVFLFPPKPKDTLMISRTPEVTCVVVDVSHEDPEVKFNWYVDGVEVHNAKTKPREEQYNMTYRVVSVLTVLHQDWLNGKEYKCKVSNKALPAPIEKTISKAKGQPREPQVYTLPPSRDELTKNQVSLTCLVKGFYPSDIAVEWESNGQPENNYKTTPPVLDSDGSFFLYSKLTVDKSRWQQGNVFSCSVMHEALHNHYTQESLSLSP
light: DIVMTQSPLSLPVTPGEPASISCQASESLVHSNRNTYLHWYLQKPGQSPQLLIYKVSNRFSGVPDRFSGSGSGTDFTLKISRVEAEDVGVYYCSQNTHVPPTFGQGTKVEIERTVAAPSVFIFPPSDEQLKSGTASVVCLLNNFYPREAKVQWKVDNALQSGNSQESVTEQDSKDSTYSLSSTLTLSKADYEKHKVYACEVTHQGLSSPVTKSFNRGEC
notes: as for B1
B20: GpH7-B3 variant S267_09D/GpL16-k0 (antibody, human IgG1, kappa)
heavy: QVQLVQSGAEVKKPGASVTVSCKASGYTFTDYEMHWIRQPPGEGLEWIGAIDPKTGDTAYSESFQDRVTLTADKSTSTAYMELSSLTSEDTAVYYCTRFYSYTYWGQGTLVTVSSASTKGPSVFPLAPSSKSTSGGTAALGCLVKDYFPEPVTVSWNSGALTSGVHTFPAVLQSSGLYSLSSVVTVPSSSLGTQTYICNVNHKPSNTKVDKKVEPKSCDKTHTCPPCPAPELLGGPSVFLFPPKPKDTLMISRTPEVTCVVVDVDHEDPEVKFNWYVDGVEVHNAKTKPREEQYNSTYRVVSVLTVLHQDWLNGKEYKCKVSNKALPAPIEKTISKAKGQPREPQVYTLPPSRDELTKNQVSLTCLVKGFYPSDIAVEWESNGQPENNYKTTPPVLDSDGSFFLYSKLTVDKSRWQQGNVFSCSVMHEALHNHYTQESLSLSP
light: DIVMTQSPLSLPVTPGEPASISCQASESLVHSNRNTYLHWYLQKPGQSPQLLIYKVSNRFSGVPDRFSGSGSGTDFTLKISRVEAEDVGVYYCSQNTHVPPTFGQGTKVEIERTVAAPSVFIFPPSDEQLKSGTASVVCLLNNFYPREAKVQWKVDNALQSGNSQESVTEQDSKDSTYSLSSTLTLSKADYEKHKVYACEVTHQGLSSPVTKSFNRGEC
notes: as for B1

The target of the assay is T1, FcγRIIa R (human FcγRIIa, allotype R, …). As to the kind of experiment: SPR (Biacore), relative binding vs GpH7-B3/GpL16-k0. The method, then:
Analysis of interaction between objective antibody and the FcγR was carried out using Biacore T100 (GE Healthcare). HBS-EP+ (GE Healthcare) was used as the running buffer, and the measurement temperature was set to 25° C. Chips produced by immobilizing the antigen peptide by the amine coupling method to a Series S Sencor Chip CM5 (GE Healthcare), or alternatively, chips produced by allowing preliminarily biotinylated antigen peptides to interact with and immobilize onto a Series S Sensor Chip SA (certified) (GE Healthcare) were used. Antibodies of interest were captured onto an antigen peptide-immobilized chip, and allowed to interact to each FcγR diluted with running buffer. To regenerate and repeatedly use the chip, the antibodies captured on the chip were washed off by reacting 10 mM glycine-HCl, pH 1.5.
The FcγR-binding activity of each antibody was assessed primarily using as an indicator the FcγR-binding activity and dissociation constant for FcγR.
In the case of B1, the Ho/Con_2aR was 99.2 relative, control = 100.

Regarding B2, the Ho/Con_2aR is 85.3 relative, control = 100.

On to B3, for which the Ho/Con_2aR is 110 relative, control = 100.

As to B4, the Ho/Con_2aR is 101 relative, control = 100.

In the case of B5, the Ho/Con_2aR was 103 relative, control = 100.

Regarding B6, the Ho/Con_2aR was 82.9 relative, control = 100.

For B7, the Ho/Con_2aR was 102 relative, control = 100.

Consider B8, for which the Ho/Con_2aR is 100 relative, control = 100.

As for B9, the Ho/Con_2aR is 114 relative, control = 100.

For B10, the Ho/Con_2aR is 98.3 relative, control = 100.

Take B11: the Ho/Con_2aR was 118 relative, control = 100.

With B12, the Ho/Con_2aR is 92.3 relative, control = 100.

For the molecule B13, the Ho/Con_2aR was 102 relative, control = 100.

Turning to B14, the Ho/Con_2aR is 110 relative, control = 100.

For the molecule B15, the Ho/Con_2aR is 94.6 relative, control = 100.

On to B16, for which the Ho/Con_2aR was 99.4 relative, control = 100.

For the molecule B17, the Ho/Con_2aR is 101 relative, control = 100.

With B18, the Ho/Con_2aR is 101 relative, control = 100.

B19: the Ho/Con_2aR is 102 relative, control = 100.

Consider B20, for which the Ho/Con_2aR was 167 relative, control = 100.
